Measurements taken from the supplement of paper PMC9170038.

Tested on: MS2 coat protein
Experiment: apparent KD of MS2 coat protein; designed switch direction (-1 OFF switch, 1 ON switch): 1; higher = weaker reporter binding
Outline: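 Transcription of designed RNA switches on Illumina chips was done by stalled E. coli RNA polymerase. SNAP-549-labelled MS2 coat protein was then titrated in doubling steps from 0.7 or 1.5 nM to 3 µM, with steps of 0.8–1.5 h at the lowest and 10–20 min at the highest concentration. The per-design median over clusters of curve-fitted normalised fluorescence is reported as apparent KD.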

[1] = input ligand: microRNA oligo, concentration not stated
[2] = Eterna round: R95, input ligand: FMN 200 uM
[3] = Eterna round: R95, input ligand: microRNA oligo, concentration not stated
[4] = Eterna round: R95, input ligand: none

| Sequence | apparent KD of MS2 coat protein (input ligand: FMN 200 uM) [nM] | apparent KD of MS2 coat protein [1] [nM] | apparent KD of MS2 coat protein (input ligand: none) [nM] | apparent KD of MS2 coat protein [2] [nM] | apparent KD of MS2 coat protein [3] [nM] | apparent KD of MS2 coat protein [4] [nM] |
| --- | --- | --- | --- | --- | --- | --- |
| ACAUGAAAUGCAGGAUAUUUUGUACCUACAUGUGACAUGAGGAUCACCCAUGUGGUAAGUAUAAGAGAGAAGGGUAAGAUAUGU [Equivalence 3 - Jieux - Same State NG 2] (Eterna round: R96, puzzle: Same State NG 2) | 60.6 | 48.3 | 72.3 |  |  |  |
| GUUAAGAACUAAGGAUAUUGAAUACAUAUGUUUAACAUGAGGAUCACCCAUGUGGGUUGCGGUAUCGAGAAGGUAGAAUAAUAG [Mat - same State NG 2 - JL mod - D93] (Eterna round: R96, puzzle: Same State NG 2) |  | 89.8 |  |  |  |  |
| CCGGUUAAUGGAGGAUAUGGAGCCUUAUUGGCUCCAGAAGGCUAAACAUGAGGAUCACCCAUGUUACCGGCGGUCAAUAGACCG [Eli NG1ss - 61] (Eterna round: R96, puzzle: Same State NG 1) | 11.5 | 18 | 23 |  |  |  |
| AAUUUUAAACAUGAGGAUCACCCAUGUGUUAUAUAAGCAAAUAAAUAAAUAAAUAAAUAAAUAAAUAAAUAAAUAAA [RNA Sequence] (puzzle: Sensor for hsa-mir-208a version 2) |  |  |  | 34.1 | 40.2 | 44.5 |
| GCUCGACGUAUUGUCUACAUGAGGAUCACCCAUGUAGGUGCGAAGGAUAUCUACGUGUUUCAUGUAGAGAAGGUCGUGUCGAGC [SameState NG3 #93] (Eterna round: R96, puzzle: Same State NG 3) | 36.3 | 35.1 | 46.4 |  |  |  |
| UUGCGGGCUUGAGGAUAUUGAGUACAUAUGUUUAACAUGAGGAUCACCCAUGUGGGUUGCGGUAUCGAGAAGGUAACUUCCUGC [salish99_SSNG2_r04_811] (Eterna round: R96, puzzle: Same State NG 2) | 100 | 65.3 | 91.1 |  |  |  |
| UGGUACAUGGGAGGAUAUCUCAUGGUGACAUGAGGAUCACCCAUGUAGUUGGACCGGAAACGGUGAGAGAAGGCCCAUGUACCU [JL SSNG1 3.74] (Eterna round: R96, puzzle: Same State NG 2) | 72.1 | 68.3 | 95.9 |  |  |  |
| CGCAACGGCUGAGGAUAUGUCAACACGGGACGGGCAGAAGGUAGCAACCACCCACAUGAGGAUCACCCAUGUAUCCAAAUUCAC [Eternabot solution 38] (Eterna round: R96, puzzle: Same State NG 1) | 48.9 | 41.5 | 42.3 |  |  |  |
| UCUUGGUUUUUGCUCGUUUUUUGUGUUGAACAUGAGGAUCACCCAUGUAUUGUACAAUCCAAUUUAAUAAUGGUCCG [JMF 48] (Eterna round: R96, puzzle: Sensor for hsa-mir-208a) | 105 | 70.1 | 99.2 |  |  |  |
| GUUAGGAAUCUAGCAGACAUGAGGAUCACCCAUGUUAGUGGGAAGGAUAUGGUACAGAAACUGUACCAGAAGGUCUUAUUGUUU [Omei SS(NG) 3 AV13] (Eterna round: R96, puzzle: Same State NG 3) | 348 | 398 | 690 |  |  |  |
| AGGAAACAUGAGGAUCACCCAUGUAAGAUAUACACAGGAUAUGCGAAAAGAAACAAAGAAGCAGAAGGGUGGAAAA [75%, Ex sub1, 11] (Eterna round: R96, puzzle: Same State 1) | 16.6 | 22.7 | 43.5 |  |  |  |
| AGAGAACAUGAGGAUCACCCAUGUGGGAUGGGCAUAGGAUAUAGAGGAGAGAGGGAGGAACUAGAAGGAUGAUGGA [JR_SS1_Sub079] (puzzle: Same State 1) |  |  |  | 43 | 103 | 50.3 |
| AGGCUCAGACGAGGAUAUAUGUGGUCACAUGAGGAUCACCCAUGUCUCGAGCUUCGGCUCGAGGCAUAGAAGGCGUCUGAGCCA [SSNG2/5-A1] (Eterna round: R96, puzzle: Same State NG 2) | 662 | 16.4 | 184 |  |  |  |
| UGGCUCAGAGCAGGAUAUACGUGGUCACAUGAGGAUCACCCAUGUCUCGAGCUUCGGCUCGAGGCGUAGAAGGGCUCUGAGCCA [SSNG2/6-B2] (Eterna round: R96, puzzle: Same State NG 2) | 110 | 187 | 305 |  |  |  |
| AUAUGAGGAGCAGGAUAUGCGGAGAAGAAAGAAGCAGAAGGGCUCAUGGGACGACAUGAGGAUCACCCAUGUACUCCGCGAUGA [AK SSNG1-V2-5] (Eterna round: R96, puzzle: Same State NG 1) | 103 | 520 | 1350 |  |  |  |
| GCUACCAAAGAAGCCAACAUGAGGAUCACCCAUGUAUGUUGGUAGGAUAUCGUUUGCAAAGCAAACGAGAAGGGCUAAGGUAGC [Mat - Same State NG 3 - JL Mod - D77] (Eterna round: R96, puzzle: Same State NG 3) | 138 | 99.2 | 107 |  |  |  |
| ACAUGAGGGUGAGGAUAUUGGAACUCACCUGACAUGAGGAUCACCCAUGUUCAAUGAGGAUCACCCAAGAAGGCACGUUGUGGA [Same State NG2 S3] (Eterna round: R96, puzzle: Same State NG 2) | 29.2 | 24 | 36.2 |  |  |  |
| GGACCCUUCGGAGGAUAUUCUCAGUAACAGUAAGAAGAAGGCCGUAAGUCAUACGCGCGUUACAUGAGGAUCACCCAUGUGUGG [Eternabot solution 47] (Eterna round: R96, puzzle: Same State NG 1) | 149 | 150 | 333 |  |  |  |
| ACUGCAAUUAACGCCUACAUGAGGAUCACCCAUGUAUGUAGGCAGGAUAUCGUUUGCUUUGCAAACGAGAAGGGCUGUAGUAGC [salish99_SSNG3_R04_003] (Eterna round: R96, puzzle: Same State NG 3) | 59.1 | 59.4 | 64.1 |  |  |  |
| GCGAGCGUACUUGCUACAUGAGGAUCACCCAUGUUUUAUGGACAGGAUAUGGUACCGUUUCGGUACCAGAAGGGUUCACAUGUG [JL SSNG3 3.82] (Eterna round: R96, puzzle: Same State NG 3) | 133 | 186 | 254 |  |  |  |
| GGAGAGAGAGCACAGGAUAUGCGAGGAGAGACAUGAGGAUCACCCAUGUAAGAGAGAGAGGAGAGGUAGAAGGGUGAGAGAGAGG [Altered State 2-21 - Jieux - Same State 2] (puzzle: Same State 2) |  |  |  | 150 | 62.7 | 92.3 |
| UCUUGGUUUUUGCUCGUUUUUUGUGUUGAACAUGAGGAUCACCCAUGUAUUGUACGAUCCAGUUAGAUGGUGGUUUG [JR_SHM208A_Sub044] (puzzle: Sensor for hsa-mir-208a) |  |  |  | 63.1 | 70.1 | 91.9 |
| GGUCGGACUCACAUGAGGAUCACCCAUGUUGCGGAAACGCCACAGGAUAUCUGUCCGAAAAGGUCAGAGAAGGGUGAACCGACC [Fiskers NG3ss - 63] (Eterna round: R96, puzzle: Same State NG 3) | 1460 | 35.8 | 214 |  |  |  |
| UGGCUCAGACGAGGAUAUGAUCAUGGCGCUUCGGCGCAUACAUGAGGAUCACCCAUGUAAAGUGAUCAGAAGGCGUCUGAGCCA [SSNG2/7-A2] (Eterna round: R96, puzzle: Same State NG 2) | 13.2 | 11.6 | 17.7 |  |  |  |
| GAGAGAGGGUGAGGAUAUUCAGUAAUAAUGAUAGAAGAAGGCACAGACAUGAGGAUCACCCAUGUGGGAAUAAUCCAGAGAGAG [Parity 3 - Jieux - Same State NG 1] (Eterna round: R96, puzzle: Same State NG 1) |  | 158 |  |  |  |  |
| UGGUACAUGGGAGGAUAUGGAGUUGAGACAUGAGGAUCACCCAUGUUAUAAAAGCCGAGAGGCAACUAGAAGGCCCAUGUACCU [JL SSNG1 3.92] (Eterna round: R96, puzzle: Same State NG 2) | 10.2 | 49.9 | 62.9 |  |  |  |
| ACAAGACAUGAGGAUCACCCAUGUAUAAAUUACACAGGAUAUCGGUGGGCCGCGCCUACACGAGAAGGGUGACUUC [Gere] (puzzle: Same State 1) |  |  |  | 77 | 33.4 | 35.5 |
| AUUUUUAAUGCAGGAUAUGAUUAACAUGAGGAUCACCCAUGUGGUGUUGUGAGUAAGGAGAGUGAUCAGAAGGGCAUUUCUUUU [JMF's solution 82] (Eterna round: R96, puzzle: Same State NG 2) | 593 | 337 | 540 |  |  |  |
| AGUCCAGCCUGAGCUGGACAAAAGCAUGUACAUGAGGAUCACCCAUGUUCAUGUACAAGCUUUUUGCUCGUCUUAAC [salish99_208a_r3_029] (puzzle: Sensor for hsa-mir-208a) |  |  |  | 553 | 16.8 | 636 |
| GCCAUCGCAUGAGGAUAUGGCACCGAAACGGUGCCAGAAGGCAUGUCGAAUGACAUGAGGAUCACCCAUGUAGUAUAGAUGGCA [Mat - Same State NG 1 - JL mod - D92] (Eterna round: R96, puzzle: Same State NG 1) | 52.9 | 571 | 628 |  |  |  |
